Assay results from patent US20190275087A1, “EXPANSION AND DIFFERENTIATION OF STEM CELLS” (Allergan Pharmaceuticals International Limited, priority 2018, published 2019).

Key:
[1] = system: MSCs; experiment: Cell migration via chemotaxis (Boyden chamber); assay type: cell-based, Human; conditions: tropoelastin in solution, lower chamber
Description: Chemotaxis was measured using a fluorimetric 96-well Boyden chamber assay system (QCM Chemotaxis Cell Migration Assay, Millipore) according to the supplier's instructions. Normal, tropoelastin-supplemented, or growth factor-supplemented media was added to the lower chamber of the well plate, while MSCs were seeded at 14,300 cells/cm^2 in normal media into the upper chamber. Where indicated, integrin-blocking antibodies were added at optimized concentrations to the upper chamber with the cells. Cells that migrate through the permeable membrane into the lower chamber were detached and quantified. Normalized cell migration was calculated by subtracting the extent of undirected cell migration (where no chemoattractant was added to the lower chamber) from each experimental result.

[2] = system: MSCs; experiment: MSC osteogenic differentiation (mineralized calcium, Alizarin Red S); assay type: cell-based, Human
Description: (§1) MSCs were grown in various media formulations and on bare or protein-coated tissue culture wells for 7 days. The expanded cells were harvested, re-seeded on TCP, and differentiated into the adipogenic, osteogenic and chondrogenic lineages using the hMSC Adipogenic BulletKit®, hMSC Osteogenic BulletKit®, and hMSC Chondrogenic BulletKit® (Lonza), respectively, following the manufacturer's instructions.
(§2) To confirm osteogenesis, cells that had been induced for 14 days were fixed and stained for mineralized calcium deposits with Alizarin Red S, as previously described. Cells from the adipogenic and osteogenic experiments were imaged with a Zeiss Axio Vert.A1 microscope using an AxioCam 105 colour camera.

[3] = system: MSCs; experiment: MSC attachment to substrate-bound tropoelastin (EDTA inhibition, cation add-back); assay type: cell-based, Human; conditions: cation-free environment
Description: MSCs were seeded at a density of 1.5×10^5 cells/cm^2 on tropoelastin-coated wells in serum-free α-MEM containing 0-9 mM ethylenediaminetetraacetic acid (EDTA) (Sigma-Aldrich®). The cells were incubated for 1 hour at 37° C., then washed with PBS to remove unbound cells. Bound cells were fixed, stained and measured for absorbance at 570 nm as described for the proliferation assays. The percentage of cell attachment was determined relative to a set of standards with known cell numbers.
MSCs were washed with cation-free PBS, centrifuged at 270 g for 5 min, and resuspended in cation-free PBS. The cells were seeded at a density of 1.5×10^5 cells/cm^2 on tropoelastin-coated wells in the presence of 0-0.5 mM cation (Mg^2+, Ca^2+ or Mn^2+) and incubated for 45 min at 37° C. Bound cells were fixed and stained, and cell attachment was quantified as previously described.

[4] = system: MSCs; experiment: Tri-lineage differentiation of MSCs expanded with tropoelastin; assay type: cell-based, Human; conditions: substrate-bound or soluble, replacing growth factors, normal or reduced serum media
Description: as §1
To confirm adipogenesis, cells that had been induced for 25 days were washed with PBS, fixed with 10% (v/v) formalin for 30 min, then washed with water. Cells were incubated with 60% (v/v) isopropanol for 5 min and stained for intracellular lipid droplets with 1.8 mg/mL Oil Red O in isopropanol for 20 min. Excess stain was removed with 5 washes of water.
as §2
To confirm chondrogenesis, cell pellets that had been induced for 14 days were washed with PBS, embedded in 1.5% (w/v) agar containing 0.85% (w/v) NaCl, and fixed with 10% (v/v) formalin overnight. […]

[5] = system: Human bone marrow-derived MSCs; experiment: MSC proliferation (crystal violet cell abundance); assay type: cell-based
Description: Human bone marrow-derived MSCs obtained from American Type Culture Collection (ATCC) were cultured in normal media, which consists of Alpha-Minimum Essential Medium (α-MEM) (Lonza) with 10% (v/v) FBS (Life Technologies) and 2.4 mM L-glutamine (Lonza), at 37° C. in a humidified normoxic incubator up to a maximum of 10 population doublings. Where indicated, the normal media was supplemented with 15 ng/mL IGF-1 (Life Technologies) and/or […] bFGF (Life Technologies), equivalent to the growth factor concentrations in the ATCC-recommended media. Cells were passaged once they reach 70-80% confluence.
Where indicated, tissue culture plastic wells were coated with 20 μg/mL recombinant human tropoelastin (Elastagen) or 2 μg/mL fibronectin (Sigma-Aldrich®) in PBS (10 mM phosphate, 150 mM NaCl, pH 7.4) at 4° C. overnight. The protein solution was removed, and wells were washed three times with PBS to remove unbound protein prior to cell seeding.
[…] To prevent protein adhesion on the tissue culture substrate, wells were pre-incubated with normal media for 5 hours to enable surface blocking by serum proteins prior to cell seeding in supplemented media.
Sub-confluent flasks of MSCs were treated with 0.05% (v/v) trypsin-EDTA (Sigma-Aldrich®) at 37° C. for 5 min to lift off adherent cells from the culture vessel. Trypsin was neutralized with two volumes of serum-containing growth media. Cells were centrifuged at 270 g for 5 min and resuspended in the required media. Cells were seeded at a density of 5000 cells/cm^2 on bare or protein-coated tissue culture plastic wells, in normal or supplemented media. Media was changed every 2 days. After specific time points, cells were fixed with 3% (v/v) formaldehyde at room temperature for 20 min, washed with PBS, then stained with 0.1% (w/v) crystal violet in 0.2 M MES buffer for 1 hour. Excess stain was washed off four times with reverse osmosis water. The retained stain was solubilized with 10% (v/v) acetic acid and sample absorbance values indicative of cell abundance were read at 570 nm. Sample absorbance values were subtracted by baseline values (corresponding to cell numbers in serum-free media, or cell numbers on day 1 post-seeding) and expressed as a fraction of the highest absorbance among all samples on day 7 post-seeding.

[6] = tropoelastin substrate, normal media
[7] = tropoelastin substrate, unsupplemented 7% FBS media, 7 days

B1: recombinant human tropoelastin (Elastagen) (ligand, UniProt P15502-2 27-724, looked up)
chain: GGVPGAIPGGVPGGVFYPGAGLGALGGGALGPGGKPLKPVPGGLAGAGLGAGLGAFPAVTFPGALVPGGVADAAAAYKAAKAGAGLGGVPGVGGLGVSAGAVVPQPGAGVKPGKVPGVGLPGVYPGGVLPGARFPGVGVLPGVPTGAGVKPKAPGVGGAFAGIPGVGPFGGPQPGVPLGYPIKAPKLPGGYGLPYTTGKLPYGYGPGGVAGAAGKAGYPTGTGVGPQAAAAAAAKAAAKFGAGAAGVLPGVGGAGVPGVPGAIPGIGGIAGVGTPAAAAAAAAAAKAAKYGAAAGLVPGGPGFGPGVVGVPGAGVPGVGVPGAGIPVVPGAGIPGAAVPGVVSPEAAAKAAAKAAKYGARPGVGVGGIPTYGVGAGGFPGFGVGVGGIPGVAGVPGVGGVPGVGGVPGVGISPEAQAAAAAKAAKYGVGTPAAAAAKAAAKAAQFGLVPGVGVAPGVGVAPGVGVAPGVGLAPGVGVAPGVGVAPGVGVAPGIGPGGVAAAAKSAAKVAAKAQLRAAAGLGAGIPGLGVGVGVPGLGVGAGVPGLGVGAGVPGFGAVPGALAAAKAAKYGAAVPGVLGGLGALGGVGIPGGVVGAGPAAAAAAAKAAAKAAQFGLVGAAGLGGLGVGGLGVPGVGGLGGIPPAAAAKAAKYGAAGLGGVLGGAGQFPLGGVAARPGFGLSPIFPGGACLGKACGRKRK
chemotactic response of MSCs [1]: dose-dependent chemotactic response
osteogenesis versus timing of exposure during expansion ([2]; TE days 2-5, 3-6 or 4-7 of 7-day proliferation period): maximum effect associated with tropoelastin exposure in the later stages of expansion
increased osteogenesis compared to cells grown on TCP ([2]; cells grown on coating): 113%
mineralized calcium ([2]; cells induced and exposed to TE): increase in mineralized calcium concentrations
MSC osteogenesis with tropoelastin added to hyaluronic acid ([2]; different molecular weight hyaluronic acid formulations): promoted MSC osteogenesis
increased osteogenesis compared to cells exposed from days 2-5 ([2]; exposed days 4-7 of seven-day expansion): 24%
osteogenesis dose response ([2]; grown in at least 2 μg/mL TE and induced in 20 μg/mL TE): Maximum osteogenesis
improved osteogenesis ([2]; tropoelastin addition during differentiation): 55%
increased osteogenesis ([2]; tropoelastin during both expansion and differentiation stages): up to 131%
improved osteogenic potential ([2]; tropoelastin present during MSC expansion): 42%
MSC adhesion to tropoelastin [3]: 20.0±2.1%
differentiation capacity after expansion [4]: exhibited the capacity for multi-lineage differentiation
increase in cell proliferation compared to normal media or media with IGF-1 ([5]; 1 μg/mL in solution, 7 days): 18±5%
increase in cell proliferation compared to normal media or media with IGF-1 ([5]; 20 μg/mL in solution, 7 days): 69±7%
improved MSC proliferation over substrate-bound tropoelastin ([5]; 20 μg/mL in solution, 7 days post-seeding): 80±8%
increase in MSC proliferation by substrate-bound tropoelastin over TCP ([5]; 7% FBS media with IGF-1, 7 days): 49±1%
increase in MSC proliferation by substrate-bound tropoelastin over TCP ([5]; 7% FBS media with bFGF, 7 days): 40±3%
increase in MSC proliferation by substrate-bound tropoelastin over TCP ([5]; 7% FBS media with both growth factors, 7 days): 29±3%
increase in MSC proliferation by substrate-bound tropoelastin over TCP ([5]; 7% FBS, unsupplemented media, 7 days): 97±19%
tropoelastin-mediated proliferative increase over bare TCP ([5]; 10% FBS media with IGF-1, 7 days): 41±1%
tropoelastin-mediated proliferative increase over bare TCP ([5]; 10% FBS media with IGF-1 and bFGF, 7 days): 16±3%
tropoelastin-mediated proliferative increase over bare TCP ([5]; 10% FBS media with bFGF, 7 days): 16±2%
serum reduction at which cell expansion remained unaffected ([5]; 7 days post-seeding, substrate-bound tropoelastin without growth factors, or IGF-1 and bFGF in media on TCP): ≤ 40%
serum reduction at which MSC numbers significantly decreased ([5]; coated surface, until 3 days post-seeding): 80%
increase in cell numbers on tropoelastin-coated TCP over bare TCP ([5]; normal 10% (v/v) serum media, 7 days): 39±3%
MSC propagation relative to bFGF ([5]; soluble 5 μg/mL, until 7 days post-seeding): comparable to bFGF
MSC expansion relative to media containing both IGF-1 and bFGF ([5]; soluble 20 μg/mL, full serum media): equivalent to that in media containing both growth factors
more potent than bFGF for MSC propagation ([5]; soluble 20 μg/mL, until 7 days post-seeding): 18±5%
MSC expansion surpassing bFGF ([5]; soluble, at and above 1 μg/mL, 3 days post-seeding): up to 74±2%
improved MSC proliferation compared to IGF-1 and bFGF in tandem ([5]; substrate-bound tropoelastin, 40% decrease in serum (6% FBS), 7 days): 23±3%
serum reduction tolerated without deleterious effects to proliferation ([5]; surface-bound tropoelastin with growth factors in media, after 5 days post-seeding): ≤ 20%
serum reduction allowed ([5]; surface-bound tropoelastin with growth factors in media, until 5 days post-seeding): 40%
proliferation compared to cells on TCP in media with bFGF [5, 6]: similarly
proliferation more than cells on TCP in media with IGF-1 [5, 6]: 36±3%
decreased expansion compared to cells on TCP in media containing both IGF-1 and bFGF ([5]; tropoelastin substrate, normal media, no additional factors): 14±2%
abundance compared to cells on TCP in media with both growth factors [5, 7]: equivalent in abundance
greater expansion relative to cells on TCP in media with IGF-1 [5, 7]: 59±15%
greater expansion relative to cells on TCP in media with bFGF [5, 7]: 37±13%
